Substrate: COc1cc(C=NN=Cc2cc(OC)c(O)c(OC)c2)cc(OC)c1O
Experiment: purified protein
Type: biochemical, Escherichia coli
Conditions: 50 mM acetate pH 5.2, 0.33 mM copper, room temperature
[1] = CueO-HA, HA epitope graft TSYPYDVPDYA (from primers), no antibody
[2] = CueO-12.1, graft PRFMDYWEGLN (from primers; residues 384–394 replaced)
[3] = CueO-PM2, graft TSFAEYWALLS (from primers), no MDM2
[4] = CueO-12.1CON, graft PRAMDYAEGAN (from primers)

B1: CueO (Escherichia coli K-12) (protein)
chain: AERPTLPIPDLLTTDARNRIQLTIGAGQSTFGGKTATTWGYNGNLLGPAVKLQRGKAVTVDIYNQLTEETTLHWHGLEVPGEVDGGPQGIIPPGGKRSVTLNVDQPAATCWFHPHQHGKTGRQVAMGLAGLVVIEDDEILKLMLPKQWGIDDVPVIVQDKKFSADGQIDYQLDVMTAAVGWFGDTLLTNGAIYPQHAAPRGWLRLRLLNGCNARSLNFATSDNRPLYVIASDGGLLPEPVKVSELPVLMGERFEVLVEVNDNKPFDLVTLPVSQMGMAIAPFDKPHPVMRIQPIAISASGALPDTLSSLPALPSLEGLTVRKLQLSMDPMLDMMGMQMLMEKYGDQAMAGMDHSQMMGHMGHGNMNHMNHGGKFDFHHANKINGQAFDMNKPMFAAAKGQYERWVISGVGDMMLHPFHIHGTQFRILSENGKPPAAHRAGWKDTVKVEGNVSEVLVKFNHDAPKEHAYMAHCHLLEHEDTGMMLGFTV
notes: C-terminal His6 tag, pET22b, full-length gene cloned, expressed in E. coli BL21(DE3); crystal models start at residue 29/30; given PDB entries are of the CueO-12.1 and CueO-PM2 variants
CueO-WT (358 reverted to Met)
  Km: 293.18 ± 23.08 µM
  kcat: 2.52 ± 0.136 s⁻¹
  kcat/Km: 8670 M⁻¹ s⁻¹

B2: CueO (Escherichia coli K-12; G386S/G389Y/G391V/H387Y/H390D/H395A/M358I/M385T/M388P/M393D/N392P/N394Y) (protein)
chain: AERPTLPIPDLLTTDARNRIQLTIGAGQSTFGGKTATTWGYNGNLLGPAVKLQRGKAVTVDIYNQLTEETTLHWHGLEVPGEVDGGPQGIIPPGGKRSVTLNVDQPAATCWFHPHQHGKTGRQVAMGLAGLVVIEDDEILKLMLPKQWGIDDVPVIVQDKKFSADGQIDYQLDVMTAAVGWFGDTLLTNGAIYPQHAAPRGWLRLRLLNGCNARSLNFATSDNRPLYVIASDGGLLPEPVKVSELPVLMGERFEVLVEVNDNKPFDLVTLPVSQMGMAIAPFDKPHPVMRIQPIAISASGALPDTLSSLPALPSLEGLTVRKLQLSMDPILDMMGMQMLMEKYGDQAMAGMDHSQMTSYPYDVPDYAMNHGGKFDFHHANKINGQAFDMNKPMFAAAKGQYERWVISGVGDMMLHPFHIHGTQFRILSENGKPPAAHRAGWKDTVKVEGNVSEVLVKFNHDAPKEHAYMAHCHLLEHEDTGMMLGFTV
notes: as for B1
[1]
  Km: 286.06 ± 22.89 µM
  kcat: 1.49 ± 0.151 s⁻¹
  kcat/Km: 5170 M⁻¹ s⁻¹

B3: CueO (Escherichia coli K-12; G386R/G389D/G391W/H387F/H390Y/H395N/M358I/M385P/M393G/N392E/N394L) (protein)
chain: AERPTLPIPDLLTTDARNRIQLTIGAGQSTFGGKTATTWGYNGNLLGPAVKLQRGKAVTVDIYNQLTEETTLHWHGLEVPGEVDGGPQGIIPPGGKRSVTLNVDQPAATCWFHPHQHGKTGRQVAMGLAGLVVIEDDEILKLMLPKQWGIDDVPVIVQDKKFSADGQIDYQLDVMTAAVGWFGDTLLTNGAIYPQHAAPRGWLRLRLLNGCNARSLNFATSDNRPLYVIASDGGLLPEPVKVSELPVLMGERFEVLVEVNDNKPFDLVTLPVSQMGMAIAPFDKPHPVMRIQPIAISASGALPDTLSSLPALPSLEGLTVRKLQLSMDPILDMMGMQMLMEKYGDQAMAGMDHSQMPRFMDYWEGLNMNHGGKFDFHHANKINGQAFDMNKPMFAAAKGQYERWVISGVGDMMLHPFHIHGTQFRILSENGKPPAAHRAGWKDTVKVEGNVSEVLVKFNHDAPKEHAYMAHCHLLEHEDTGMMLGFTV
notes: as for B1
[2]
  Km: 290.65 ± 44.33 µM
  kcat: 1.03 ± 0.0613 s⁻¹
  kcat/Km: 3500 M⁻¹ s⁻¹

B4: CueO (Escherichia coli K-12; M358I) (protein)
chain: AERPTLPIPDLLTTDARNRIQLTIGAGQSTFGGKTATTWGYNGNLLGPAVKLQRGKAVTVDIYNQLTEETTLHWHGLEVPGEVDGGPQGIIPPGGKRSVTLNVDQPAATCWFHPHQHGKTGRQVAMGLAGLVVIEDDEILKLMLPKQWGIDDVPVIVQDKKFSADGQIDYQLDVMTAAVGWFGDTLLTNGAIYPQHAAPRGWLRLRLLNGCNARSLNFATSDNRPLYVIASDGGLLPEPVKVSELPVLMGERFEVLVEVNDNKPFDLVTLPVSQMGMAIAPFDKPHPVMRIQPIAISASGALPDTLSSLPALPSLEGLTVRKLQLSMDPILDMMGMQMLMEKYGDQAMAGMDHSQMMGHMGHGNMNHMNHGGKFDFHHANKINGQAFDMNKPMFAAAKGQYERWVISGVGDMMLHPFHIHGTQFRILSENGKPPAAHRAGWKDTVKVEGNVSEVLVKFNHDAPKEHAYMAHCHLLEHEDTGMMLGFTV
notes: as for B1
  Km: 256.09 ± 9.59 µM
  kcat: 2.24 ± 0.19 s⁻¹
  kcat/Km: 8830 M⁻¹ s⁻¹

B5: CueO (Escherichia coli K-12; G386S/G389E/G391W/H387F/H390Y/H395S/M358I/M385T/M388A/M393L/N392A/N394L) (protein)
chain: AERPTLPIPDLLTTDARNRIQLTIGAGQSTFGGKTATTWGYNGNLLGPAVKLQRGKAVTVDIYNQLTEETTLHWHGLEVPGEVDGGPQGIIPPGGKRSVTLNVDQPAATCWFHPHQHGKTGRQVAMGLAGLVVIEDDEILKLMLPKQWGIDDVPVIVQDKKFSADGQIDYQLDVMTAAVGWFGDTLLTNGAIYPQHAAPRGWLRLRLLNGCNARSLNFATSDNRPLYVIASDGGLLPEPVKVSELPVLMGERFEVLVEVNDNKPFDLVTLPVSQMGMAIAPFDKPHPVMRIQPIAISASGALPDTLSSLPALPSLEGLTVRKLQLSMDPILDMMGMQMLMEKYGDQAMAGMDHSQMTSFAEYWALLSMNHGGKFDFHHANKINGQAFDMNKPMFAAAKGQYERWVISGVGDMMLHPFHIHGTQFRILSENGKPPAAHRAGWKDTVKVEGNVSEVLVKFNHDAPKEHAYMAHCHLLEHEDTGMMLGFTV
notes: as for B1
[3]
  Km: 284.77 ± 25.50 µM
  kcat: 0.811 ± 0.0288 s⁻¹
  kcat/Km: 2830 M⁻¹ s⁻¹

B6: CueO (Escherichia coli K-12; G386R/G389D/G391A/H387A/H390Y/H395N/M358I/M385P/M393G/N392E/N394A) (protein)
chain: AERPTLPIPDLLTTDARNRIQLTIGAGQSTFGGKTATTWGYNGNLLGPAVKLQRGKAVTVDIYNQLTEETTLHWHGLEVPGEVDGGPQGIIPPGGKRSVTLNVDQPAATCWFHPHQHGKTGRQVAMGLAGLVVIEDDEILKLMLPKQWGIDDVPVIVQDKKFSADGQIDYQLDVMTAAVGWFGDTLLTNGAIYPQHAAPRGWLRLRLLNGCNARSLNFATSDNRPLYVIASDGGLLPEPVKVSELPVLMGERFEVLVEVNDNKPFDLVTLPVSQMGMAIAPFDKPHPVMRIQPIAISASGALPDTLSSLPALPSLEGLTVRKLQLSMDPILDMMGMQMLMEKYGDQAMAGMDHSQMPRAMDYAEGANMNHGGKFDFHHANKINGQAFDMNKPMFAAAKGQYERWVISGVGDMMLHPFHIHGTQFRILSENGKPPAAHRAGWKDTVKVEGNVSEVLVKFNHDAPKEHAYMAHCHLLEHEDTGMMLGFTV
notes: as for B1
[4]
  Km: 234.51 ± 41.99 µM
  kcat: 1.61 ± 0.238 s⁻¹
  kcat/Km: 6830 M⁻¹ s⁻¹
